Measurements published in patent US20210324061A1 (ARGENX BVBA, published 2021).
Numbering of substitutions follows the chain as printed. Numbers in names are those of the source. Where “and” joins values, the source holds several entries; their conditions need not be identical. Identical values can stand only once. Values belong to the binder of their own block, whether it stands above or below them.

Experiments:
[1] = target: T1, human GARP-TGF-β1 complex (recombinant complex of human GARP and latent human TGF-β1) (human, UniProt Q14392 20-627; P01137 30-278; P01137 279-390); assay: SPR Biacore 3000, chip ~4000 RU hGARP-TGF-β; slope vs -20°C reference (=100%); sample 0 d, 37°C arm
T1 construct: also called huGARP-TGF-β1; hGARP-TGF-β1
T1 sequence (Q14392 20-627 limits assumed, chain 1 of 3): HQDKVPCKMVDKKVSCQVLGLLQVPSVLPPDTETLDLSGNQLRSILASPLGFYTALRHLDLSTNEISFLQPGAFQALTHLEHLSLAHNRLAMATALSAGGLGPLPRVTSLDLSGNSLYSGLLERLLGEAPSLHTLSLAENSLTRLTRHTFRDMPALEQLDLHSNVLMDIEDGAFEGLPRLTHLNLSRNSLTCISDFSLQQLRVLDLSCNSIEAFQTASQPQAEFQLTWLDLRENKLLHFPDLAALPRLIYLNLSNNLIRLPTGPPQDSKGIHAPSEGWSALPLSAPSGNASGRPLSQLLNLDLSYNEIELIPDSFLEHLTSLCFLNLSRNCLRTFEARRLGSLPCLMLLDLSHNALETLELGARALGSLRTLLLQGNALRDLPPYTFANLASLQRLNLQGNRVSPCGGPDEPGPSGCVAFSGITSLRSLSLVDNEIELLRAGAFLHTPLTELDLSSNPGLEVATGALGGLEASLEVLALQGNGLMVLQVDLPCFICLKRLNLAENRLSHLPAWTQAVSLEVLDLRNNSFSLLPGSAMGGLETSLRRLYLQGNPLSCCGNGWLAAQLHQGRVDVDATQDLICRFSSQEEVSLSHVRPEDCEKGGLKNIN
T1 sequence (P01137 30-278 limits assumed, chain 2 of 3): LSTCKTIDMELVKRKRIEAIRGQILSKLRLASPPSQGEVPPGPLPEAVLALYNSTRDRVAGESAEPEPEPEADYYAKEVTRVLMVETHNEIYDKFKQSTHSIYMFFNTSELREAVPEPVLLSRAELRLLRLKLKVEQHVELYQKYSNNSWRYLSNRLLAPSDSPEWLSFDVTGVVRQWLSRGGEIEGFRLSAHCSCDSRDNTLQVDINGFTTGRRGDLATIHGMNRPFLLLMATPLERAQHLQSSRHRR
T1 sequence (P01137 279-390 limits assumed, chain 3 of 3): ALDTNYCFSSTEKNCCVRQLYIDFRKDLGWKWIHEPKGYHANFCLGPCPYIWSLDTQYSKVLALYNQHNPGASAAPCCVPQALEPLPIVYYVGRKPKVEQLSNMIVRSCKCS
Procedure: (§1) From the intermediate concentration of all samples at 1 mg/ml described above, an extra 1/250 dilution was done for SPR analysis to yield a final concentration of 4 μg/ml. This 1/250 dilution took place for all conditions in two steps: a) 5 μl (1 mg/ml)+120 μl HBS-EP (SPR buffer) and b) an extra 10× dilution (15 μl+135 μl HBS-EP). For each antibody and each time point, a separate standard curve was prepared, starting from a −80° C. frozen sample. This was analyzed together with the stability samples to determine the slope of each curve after general fitting of the standards. These slopes were used to calculate the percent activity of the stability samples by setting the reference sample at 100%.
(§2) To determine the target binding activity in Biacore, a CM5 chip was coated with ˜4000 RU human GARP-TGF-β complex. Flow was set to 30 μl/min with a “kinject” injection mode and two regeneration injections (1 mM NaCl, 2.5 mM glycine pH 1.5) with a 5 min interval.
(§3) Open the curves in the BIAEVAL program and select value ‘2-1’ (1: blank, 2 hGARP-TGF-β1) [0263] Select one curve at the time for plot overlay [0264] Delete the regeneration part of the curve [0265] Select the baseline just before the injection and transform the Y-axis for ‘zero at median of selection’ [0266] Select ‘General Fit’, starting from 120 sec after injecting and ending at 155 sec [0267] Plot the standards in Excel and determine the slope of the curve for each antibody [0268] These values are converted to a percent activity by setting the reference (sample stored at −20° C.) at 100%

[2] = target: T1, human GARP-TGF-β1 complex (recombinant …); assay: SPR Biacore 3000, chip ~4000 RU hGARP-TGF-β; slope vs -20°C reference (=100%); sample 0 d, 5°C arm
Procedure: as §1, §2, §3

[3] = target: T1, human GARP-TGF-β1 complex (recombinant …); assay: SPR Biacore T200, CM5 chip coated with the antibody at 200 RU, complex in solution
Procedure: (§4) The affinity of all antibodies (including 39B6-A) for GARP-TGF-β1 was tested by BiacoreT200 using a CM5 chip coated with GARP-TGF-β1 complex at 150RU (Table 17) or coated with the antibodies at 200RU (Table 17)

[4] = target: T1, human GARP-TGF-β1 complex (recombinant …); assay: SPR Biacore 3000, chip ~4000 RU hGARP-TGF-β; slope vs -20°C reference (=100%); sample stored 28 d at 5°C
Procedure: as §1, §2, §3

[5] = target: T1, human GARP-TGF-β1 complex (recombinant …); assay: SPR Biacore T200, CM5 chip coated with GARP-TGF-β1 complex at 150 RU
Procedure: as §4

[6] = target: T1, human GARP-TGF-β1 complex (recombinant …); assay: SPR Biacore 3000, chip ~4000 RU hGARP-TGF-β; slope vs -20°C reference (=100%); sample stored 56 d at 5°C
Procedure: as §1, §2, §3

[7] = target: T1, human GARP-TGF-β1 complex (recombinant …); assay: SPR Biacore 3000, chip ~4000 RU hGARP-TGF-β; slope vs -20°C reference (=100%); sample stored 56 d at 37°C
Procedure: as §1, §2, §3

[8] = target: T1, human GARP-TGF-β1 complex (recombinant …); assay: SPR Biacore 3000, chip ~4000 RU hGARP-TGF-β; slope vs -20°C reference (=100%); sample stored 28 d at 37°C
Procedure: as §1, §2, §3

[9] = target: T1, human GARP-TGF-β1 complex (recombinant …); assay: SPR Biacore T200, CM5 chip coated with the antibody at 1000 RU, complex in solution
Procedure: (§5) Clone 39B6 was selected as the lead germlined clone based on its binding characteristics. This antibody was produced in two effector function deficient formats, hlgG1^N297Q and hlgG4^S228P, and stability tests were carried out. Prior to the stability testing, the affinity of the effector deficient 39B6 antibodies for GARP-TGF-β1 was tested by BiacoreT200 using a CM5 chip coated with GARP-TGF-β1 complex at 750RU (Table 14) or coated with the antibodies at 1000RU (Table 15).

[10] = target: T1, human GARP-TGF-β1 complex (recombinant …); assay: SPR Biacore T200, CM5 chip coated with GARP-TGF-β1 complex at 750 RU
Procedure: as §5

[11] = target: T1, human GARP-TGF-β1 complex (recombinant …); assay: SPR, Fab off-rate on human GARP-TGF-β1 complex
[12] = target: T1, human GARP-TGF-β1 complex (recombinant …); assay: SPR, mAb on human GARP-TGF-β1 complex
Description: The five germlined clones reformatted to human IgG1 were produced by transient transfection in HEK 293E cells.

[13] = target: T2, complex of recombinant GARP and recombinant LAP (human, UniProt Q14392 20-627; P01137 30-278); assay: ELISA in two orientations: GARP coated and LAP captured; or ARGX-115 coated, GARP then LAP added, detected with anti-LAP-HRP
T2 construct: Formed on the ELISA plate; It contains no mature TGF-β; also called GARP-LAP complex
T2 sequence (Q14392 20-627 limits assumed, chain 1 of 2): as the sequence (Q14392 20-627 limits assumed, chain 1 of 3) above
T2 sequence (P01137 30-278 limits assumed, chain 2 of 2): as the sequence (P01137 30-278 limits assumed, chain 2 of 3) above
Procedure: For ELISA plates coated with GARP, a complex with either full-length latent TGF-β (including both the LAP and mature TGF-β regions) or a complex with recombinant LAP was allowed to form by the addition of the relevant recombinant protein. […] In contrast, an anti-LAP antibody was able to bind to the GARP-LAP complex.
An ELISA plate was coated with recombinant GARP (1 μg/mL O/N 4° C.), blocked with blocking agent (casein-PBS), and LAP (5 μg/mL) was captured on the coated recombinant GARP. LAP binding was detected with anti-LAP-HRP.

Activity on Biacore (%) [1]: 130% | Activity on Biacore (%) [2]: 130% | Fold-difference (KD vs 39B6-A) [3]: 1.5 fold | Kd [3]: 2.02 nM | Activity on Biacore (%) [4]: 101% | Fold-difference (KD vs 39B6-A) [5]: 0.9 fold | Kd [5]: 0.88 nM | Activity on Biacore (%) [6]: 101% | Activity on Biacore (%) [7]: 62.4% | Activity on Biacore (%) [8]: 77.8%
B1: 39B6-ANK IgG4 S228P (antibody, V domains shown)
VH: QVQLVQPGAEVRKPGASVKVSCKASGYRFTSYYIDWVRQAPGQGLEWMGRIDPEDAGTKYAQKFQGRVTMTADTSTSTVYVELSSLRSEDTAVYYCARNKWETVVVGDLMYEYEYWGQGTLVTVSS
VL: DIQMTQSPSSLSASVGDRVTITCQASQSISSYLAWYQQKPGQAPKILIYGASRLKTGVPSRFSGSGSGTSFTLTISSLEPEDAATYYCQQYASVPVTFGQGTKVEIKR
notes: Variant of 39B6-A in IgG4 S228P format; Positions are Kabat-type

Kd [9]: 1.23 nM and 1.02 nM
B2: 39B6 IgG1-N297Q (antibody, V domains shown)
VH: B1 VH with A56G, K100E
VL: DIQMTQSPSSLSASVGDRVTITCQASQSISSYLAWYQQKPGQAPKILIYGASRLKTGVPSRFSGSGSGTSFTLTISSLEPEDAATYYCQQYASVPVTFGQGTKVEIK
notes: Effector-deficient format hIgG1 N297Q; The second row may be the IgG4 S228P form; Both rows are written here as printed

Fold-difference (KD vs LHG10.6) [10]: 1 fold | Kd [10]: 0.819 nM | Fold-difference (KD vs LHG10.6) [9]: 1 fold | Kd [9]: 0.534 nM
B3: LHG10.6 IgG1-N297Q (antibody, V domains shown)
VH: B1 VH with Q1E, V11L, K13N, P14S, A56G, M70F, V79A, K100E, L121Q
VL: B2 VL with V15L, K45N, S77G, P80A, A84G, I106L

koff [11]: 0.000201 s⁻¹
B4: Fab 17H5 (Fab of LHG-10.6) (Fab, V domains shown)
VH: B1 VH with Q1E, V11L, K13N, P14S, A56G, M70F, V79A, K100E, L121Q
VL: B2 VL with V15L, K45N, S77G, P80A, A84G, I106L
notes: Parental, non-germlined Fab

Kd [12]: 0.1 nM | fold difference (KD vs 17H5) [12]: 1 fold | Fold-difference (KD vs 39B6-A) [5]: 0.5 fold | Kd [5]: 0.517 nM
B5: LHG-10.6 monoclonal antibody (17H5 mAb), isotype not stated (antibody, V domains shown)
VH: B1 VH with Q1E, V11L, K13N, P14S, A56G, M70F, V79A, K100E, L121Q
VL: B2 VL with V15L, K45N, S77G, P80A, A84G, I106L

Activity on Biacore (%) [1]: 99.5% | Activity on Biacore (%) [2]: 99.5% | Fold-difference (KD vs 39B6-A) [3]: 1 fold | Kd [3]: 1.29 nM | Activity on Biacore (%) [4]: 99% | Fold-difference (KD vs 39B6-A) [5]: 0.9 fold | Kd [5]: 0.894 nM | Activity on Biacore (%) [6]: 96.9% | Activity on Biacore (%) [7]: 31.3% | Activity on Biacore (%) [8]: 68%
B6: 39B6-AVE IgG4 S228P (antibody, V domains shown)
VH: B1 VH with N99V, K100E
VL: B1 VL
notes: as for B1

Activity on Biacore (%) [1]: 93.5% | Activity on Biacore (%) [2]: 93.5% | Fold-difference (KD vs 39B6-A) [3]: 1.2 fold | Kd [3]: 1.62 nM | Activity on Biacore (%) [4]: 96.7% | Fold-difference (KD vs 39B6-A) [5]: 0.8 fold | Kd [5]: 0.763 nM | Activity on Biacore (%) [6]: 104% | binding result [13]: no binding | Activity on Biacore (%) [7]: 104% | Activity on Biacore (%) [8]: 96.1%
B7: 39B6-AYE (ARGX-115), IgG4 S228P (antibody, V domains shown)
VH: B1 VH with N99Y, K100E
VL: B1 VL

Activity on Biacore (%) [1]: 101% | Activity on Biacore (%) [2]: 101% | Fold-difference (KD vs 39B6-A) [3]: 1.5 fold | Kd [3]: 1.94 nM | Activity on Biacore (%) [4]: 129% | Fold-difference (KD vs 39B6-A) [5]: 0.9 fold | Kd [5]: 0.884 nM | Activity on Biacore (%) [6]: 85.4% | Activity on Biacore (%) [7]: 46.3% | Activity on Biacore (%) [8]: 85.4%
B8: 39B6-ANR IgG4 S228P (antibody, V domains shown)
VH: B1 VH with K100R
VL: B1 VL
notes: as for B1
